This note sets out measurements from the DeepSol protein solubility set.

This data set is described as follows: soluble on expression in E. coli; label from the status in PepcDB or PDB records.
Consider “MAVLYKSFQSVLEDKNHKKMFHPRVIYTANISTSQIAKEIAAYSSLSPGDVKNTLDNLVTVMGQHLQASESVSLDGFGTFRMVMKSNGKGVETSEEVSAAQASLTVRFLPNFTKNPDRTTATRSLVTGAKCVRFDRTDTPASGSGNTNKPGGGDGGEGGGEEAPDPTV”, for which the “soluble on expression in E. coli” value is “not soluble”.

Turning to “MSVLRSMDKLPDLNRATVLLVSTEDALLQQLAESMLKDDCASELRVHLANSLPLPSNVNRPRIDLIVFVINLHSKYSLQKVEEFLQHVDSSFFLGKVCFLVTGAGQESHCSVHQNTVIKLAHTYRSPLFLCDLQKVESFRAAMARRLVRILQICAGHVPGVSALNLMSLLRSPENPPSKEL”, the “soluble on expression in E. coli” value is “not soluble”.

“MPCQSKKNPSEVHISSGRDLVQRTFVFSNTTGKDFLLKLITSSEAISFPTNIFRFPPSSHRVIQFRVNSSKLSHWDKLNMSIKGYVMPIYAKNLKQFIDQKSTAGTQDQEAFSLAVKFTDQYSAPQVLINLPGSATCIESMDHPVGIEELDTITAVNIEKDALTAAPIGNLMGFVEEYKRRNTNKGGCWLSNYICGGEEEQKEKKSIRGASRRSSRSSKKSAKSAGSSSCRSQSRKKNKKSQVNVCLEATPCGGSTIQA”: the “soluble on expression in E. coli” value is listed as “not soluble”.

As to “MAYWLMKSEPDEFSISDLQRLGKARWDGVRNYQARNFLRTMAEGDEFFFYHSSCPEPGIAGIGKIVKTAYPDPTALDPDSHYHDAKATTEKNPWSALDIGFVDIFKNVLGLGYLKQQSQLEQLPLVQKGSRLSVMPVTAEQWAAILALRLEHHHHHH”, the “soluble on expression in E. coli” value is “soluble”.

Consider “MLRLRTPSRIHITLIDLNGSIGRVDGGVGLALEEPHIEIKAKESETFVLKGEPINRERFEIAAAKMAEYCGRGAEIEVVSDYDAHVGLGSGTQISLAVGRAFSELYGLNLTTRQIAEIMGRGGTSGIGVAVFDHGGLVVDGGHSTKEKKSFLPSSASRAKPAPMIARLDFPDWNVVLAIPDLKGFFGEREVNLFQKSCPVPLEDVREICHLILMKMLPAVVEADLDEFGKALKRIQELGFKKAEVEQYGELIKGCFDLADCIGMSSTGPTVYAITDSNAGGIERSLRDYFAEKGYECRTIVTKARNRGVEIEV”, for which the “soluble on expression in E. coli” value is “not soluble”.

With “MPRAYWKGTLKLSLVTCPVALYPATTSVEKTRFHMINAETGNRLKQQMIDEDTGDVVEKDQKARGYEVRKGKYIEIEKDELEAVQIESTHTIDIDSFVPADEIDQRFLNHPYYIVPDGKAGTDAFAVIRDAMKDKGHVALGRIVLTNREHVLAIEPFGKGLLATTLRYPYELRDAD”, the “soluble on expression in E. coli” value is listed as “not soluble”.

For the sequence “MDTQQLINAITPEAYQRLLYAVETGKWPEGTPLSQQQRDSCMQAVMLYQSKHNTQADHMSVGVGGEVVFKSKAELKKRFSEGEEDILRVNPNQEA”, the “soluble on expression in E. coli” value is reported as “not soluble”.

As for “MLRVLIVDDEMLARDELAYLLKRTNDEMEINEAENIESAFDQMMDQKPDLLFLDVDLSGENGFDIAKRLKKMKHPPAIVFATAYDQYALKAFEVDALDYLTKPFDEERIQQTLKKYKKVNRDIVETEQNSHAGQHKLALSVGESIVIVDTKDIIYAGTEDGHVNVKTFDHSYTVSDTLVVIEKKLPDSDFIRVHRSFVVNTEYIKEIQPWFNSTYNLIMKDGSKIPVSRTYAKELKKLLHI”, the “soluble on expression in E. coli” value was “not soluble”.

Consider “AVNEENIMIPKGVEVYEITGPYFFGIATKFEETMAQLGDRPNVRIIRMRKVPFIDSTGIHNLTTLCEMSQKEKITVILSGVNEKVYKVLEKSGFYELLGKENICPNFKIALDRAEEV”, for which the “soluble on expression in E. coli” value is recorded as “not soluble”.

Turning to “GEERKCLQTHRVTVHGVPGPEPFTVFTINGGTKAKQLLQQILTNEQDIKPVTTDYFLMEEKYFISKEKNECRKQPFQRAIGPEEEIMQILSSWFPEEGYMGRIVLKTQQE”, the “soluble on expression in E. coli” value is recorded as “soluble”.

Regarding “MGHHHHHHSHMEGMDVDLDPELMQKFSCLGTTDKDVLISEFQRLLGFQLNPAGCAFFLDMTNWSLQAAIGAYYDFESPNISVPSMSFVEDVTIGEGESIPPDTQFVKTWRIQNSDVIWVILSVEVGGLLGVTQQLSSFETEFNTQPHRKVEGNFNPFASPQKNRQSDENNLKDPGGSEFDSISKNTWAPAPDTWAPAPDQTEQDQNRLSQNSVNLSPSSHANNLSVVTYSKGLHGPYPFGQS”, the “soluble on expression in E. coli” value is “soluble”.

Take “MPLELTQSRVQKIWVPVDHRPSLPRSCGPKLTNSPTVIVMVGLPARGKTYISKKLTRYLNWIGVPTKVFNVGEYRREAVKQYSSYNFFRPDNEEAMKVRKQCALAALRDVKSYLAKEGGQIAVFDATNTTRERRHMILHFAKENDFKAFFIESVCDDPTVVASNIMEVKISSPDYKDCNSAEAMDDFMKRISCYEASYQPLDPDKCDRDLSLIKVIDVGRRFLVNRVQDHIQSRIVYYLMNIHVQPRTIYLCRHGENEHNLQGRIGGDSGLSSRGKKFASALSKFVEEQNLKDLRVWTSQLKSTIQTAEALRLPYEQWKALNEIDAGVCEELTYEEIRDTYPEEYALREQDKYYYRYPTGESYQDLVQRLEPVIMELERQENVLVICHQAVLRCLLAYFLDKSAEEMPYLKCPLHTVLKLTPVAYGCRVESIYLNVESVCTHRERSEDAKKGPNPLMRRNSVTPLASPEPTKKPRINSFEEHVASTSAALPSCLPPEVPTQLPGQNMKGSRSSADSSRKH”: the “soluble on expression in E. coli” value is “soluble”.

With “GPVNPAENFRVLVKQKKASFEEASNQLINHIEQFLDTNETPYFMKSIDCIRAFREEAIKFSEEQRFNNFLKALQEKVEIKQLNHFWEIVVQDGITLITKEEASGSSVTAEEAKKFLAPKD”, the “soluble on expression in E. coli” value was “soluble”.

“KNCCVYDMATNTLVDAAPYGERSSDYQLATLFHNPGNNNEYLLSQVIEVLDDICQSKEIASETKTKAHWLLSYEPRLPDGDKVKRLLSILEQTLEAFSK”: the “soluble on expression in E. coli” value is listed as “not soluble”.

For the sequence “MGSDKIHHHHHHMKWLLFPARIVARTRPNLFSLYRRSVSQYLRPRTIQNLQSMAQTPELKTKLFKPLVWIDCEMTGLDHVNDRIIEICCIITDGHLAPVKAADGQGDSHYESVIHYGPEVMNKMNEWCIEHHGNSGLTAKVLASEKTLAQVEDELLEYIQRYIPDKNVGVLAGNSVHMDRLFMVREFPKVIDHLFYRIVDVSSIMEVARRHNPALQARNPKKEAAHTAYSDIKESIAQLQWYMDNYLKPPQETESVESIGSEQPESPSSSTSSLKRQRTDF”, the “soluble on expression in E. coli” value is “not soluble”.

With “MFDFSKVVDRHGTWCTQWDYVADRFGTADLLPFTISDMDFATAPCIIEALNQRLMHGVFGYSRWKNDEFLAAIAHWFSTQHYTAIDSQTVVYGPSVIYMVSELIRQWSETGEGVVIHTPAYDAFYKAIEGNQRTVMPVALEKQADGWFCDMGKLEAVLAKPECKIMLLCSPQNPTGKVWTCDELEIMADLCERHGVRVISDEIHMDMVWGEQPHIPWSNVARGDWALLTSGSKSFNIPALTGAYGIIENSSSRDAYLSALKGRDGLSSPSVLALTAHIAAYQQGAPWLDALRIYLKDNLTYIADKMNAAFPELNWQIPQSTYLAWLDLRPLNIDDNALQKALIEQEKVAIMPGYTYGEEGRGFVRLNAGCPRSKLEKGVAGLINAIRAVR”, the “soluble on expression in E. coli” value is given as “soluble”.

Consider “MRGSHHHHHHGSSQVADKDDPTNKFYQSVIQLGNGFLDVFTSFGGLVAEAFGFKSDPKKSDVKTYFTTVAAKLEKTKTDLNSLPKEKSDISSTTGKPDSTGSVGTAVEGAIKEVSELLDKLVKAVKTAEGASSGTAAIGEVVADADAAKVADKASVKGIAKGIKEIVEAAGGSEKLKAVAAAKGENNKGAGKLFGKAGAAAHGDSEAASKAAGAVSAVSGEQILSAIVTAADAAEQDGKKPEEAKNPIAAAIGDKDGGAEFGQDEMKKDDQIAAAIALRGMAKDGKFAVKDGEKEKAEGAIKGAAESAVRKVLGAITGLIGDAVSSGLRKVGDSVKAASKETPPALNK”, for which the “soluble on expression in E. coli” value is listed as “soluble”.

In the case of “MVEVVSVREHDRWRGVYVVELEDGSLRIATKNLVPGQRVYGERIFRYNGEEYREWNAYRSKLAAALLKGLIELPVKEGDRILYLGIASGTTASHMSDIIGPRGRIYGVEFAPRVMRDLLTVVRDRRNIFPILGDARFPEKYRHLVEGVDGLYADVAQPEQAAIVVRNARFFLRDGGYMLMAIKARSIDVTTEPSEVYKREIKTLMDGGLEIKDVVHLDPFDRDHAMIYAVMRR”, the “soluble on expression in E. coli” value is “soluble”.

For the sequence “MGSDKIHHHHHHMTKTDPAPMAPPPRGEEEEEEEEDEPVPEAPSPTQERRQKPVVHPSAPAPLPKDYAFTFFDPNDPACQEILFDPQTTIPELFAIVRQWVPQVQHKIDVIGNEILRRGCHVNDRDGLTDMTLLHYACKAGAHGVGDPAAAVRLSQQLLALGADVTLRSRWTNMNALHYAAYFDVPVLVRVLLKGARPRVVNSTCSDFNHGSALHIAASSLCLGAAKCLLEHGANPALRNRKGQVPAEVVPDPMDMSLDKAEAALVAKELRTLLEEAVPLSCALPKVTLPNYDNVPGNLMLSALGLRLGDRVLLDGQKTGTLRFCGTTEFASGQWVGVELDEPEGKNDGSVGGVRYFICPPKQGLFASVSKISKAVDAPPSSVTSTPRTPRMDFSRVTGKGRREHKGKKKTPSSPSLGSLQQRDGAKAEVGDQVLVAGQKQGIVRFYGKTDFAPGYWYGIELDQPTGKHDGSVFGVRYFTCPPRHGVFAPASRIQRIGGSTDSPGDSVGAKKVHQVTMTQPKRTFTTVRTPKDIASENSISRLLFCCWFPWMLRAEMQS”, the “soluble on expression in E. coli” value is “not soluble”.

For “GSHMARGKLKAPKWPILKNLELLQAQNYSRNIKTFPYKELNKSMYYDKWVCMCRCEDGALHFTQLKDSKTITTITTPNPRTGGEHPAIISRGPCNRLLLLYPGNQITILDSKTNKVLREIEVDSANEIIYMYGHNEVNTEYFIWADNRGTIGFQSYEDDSQYIVHSAKSDVEYSSGVLHKDSLLLALYSPDGILDVYNLSSPDQASSRFPVDEEAKIKEVKFADNGYWMVVECDQTVVCFDLRKDVGTLAYPTYTIPEFKTGTVTYDIDDSGKNMIAYSNESNSLTIYKFDKKTKNWTKDEESALCLQSDTADFTDMDVVCGDGGIAAILKTNDSFNIVALTP”, the “soluble on expression in E. coli” value is reported as “soluble”.

Consider “MGSDKIHHHHHHMFYIMPAWENEVSELNRDLLKNLTNVFVGGKKSVKLAVLNFLPNLRYLLHVNGLTNYEYWNIWDAILGIERVDGMPLGPEALDLPQGVRLINAMTSMDAYEGSKLYARIIRSSEGYLSEVQFMNPQNRHTDVYDDRGFKVCTNYYENEEVVRQEWFNECNQLIVRYEPKAKVAVQILGNYSNFEKRQYKTLNELLMEFVNSFFEEHFDPTQDRLIASTNLKIRPLMVEIQNRLPVTYLLDHLGPMDTTTVETLQPQIQGAFKFVVPNYVIFQQIKSSVAEPAQKVLKLGYPYGTENRLGNSNEESKMFIYWHIDESTNDTTCSQFAEKLIDYSLEHENVGLQVAALNDRQANLVFNYLCQALKNKYTFLDLEQDQDLIWKIVFGREDTDAIGKLLMQLKFRLGMNLKHDPETNPQKLADSARFKKINWKKVMEDITETIIRVNSRDNEIYRNLARSRVLVDVGSPYNTRMQFNAISAGIPQIVNVDSPFIINRKNGWIINEKQSLSQGLDFYLQELGNWNKSLVATTKYMEQLTLKRQADWWERRTKYEK”, for which the “soluble on expression in E. coli” value was “not soluble”.

For the sequence “MKVMNIIHDSVVDGEGLRTVVFFAGCPHRCVGCHNPKSWNICNGTEMTVEEIVKEIASNPLTDVTFSSGDPFFQAAEVKKVAKIGKDLKKNLWMYTGYTLEEIQSSQNNDMIELLHYGDVLVDGRFEIEEKDLTLPFRGSSNQRIIRLKELEHHHHHH”, the “soluble on expression in E. coli” value was “not soluble”.

Take “MISVTFRQILGLVSLLCATWLYSQCRHIWLLAQDDFNEQFTNFLGEKWWSTDQLELCDDETKDTKWQKNDSICITYVYNMLPVDMEIISWAPTLVIYRNLMSPRQTASFLNFIEQRDLEIQKTSDFGTSIETTHRRANGSFIPPEDSNVTVEIKMQAQKRIPGLNLTVAEHFSALSYLPGGHYAVHYDYLDYRSKQDYDWWMNKTGNRIGTLIFVLKPAEKGGGTVFPSIGSTVRANAGDAFFWFNAQADEEKEMLSNHGGCPIYEGRKVIATIWIRAYNQRILPMAPAGSSIHASWLIPSLSNRFRPEMQTQSPVPN”: the “soluble on expression in E. coli” value is listed as “not soluble”.
